This note sets out measurements from publication PMC9942828.

The target of assay [1] is SORLA dimer of SORLA-V1 and SORLA-V2 with reconstituted Venus (human) (UniProt Q92673). In words: co-IP.
Assay [2] addresses PA-tagged SORLA VPS10p-domain (1 to 753), T659C mutant (human) (UniProt Q92673). In words: cross-linking.

UniProt Q92673, sequence (Q92673 82-2214, chain 1 of 2): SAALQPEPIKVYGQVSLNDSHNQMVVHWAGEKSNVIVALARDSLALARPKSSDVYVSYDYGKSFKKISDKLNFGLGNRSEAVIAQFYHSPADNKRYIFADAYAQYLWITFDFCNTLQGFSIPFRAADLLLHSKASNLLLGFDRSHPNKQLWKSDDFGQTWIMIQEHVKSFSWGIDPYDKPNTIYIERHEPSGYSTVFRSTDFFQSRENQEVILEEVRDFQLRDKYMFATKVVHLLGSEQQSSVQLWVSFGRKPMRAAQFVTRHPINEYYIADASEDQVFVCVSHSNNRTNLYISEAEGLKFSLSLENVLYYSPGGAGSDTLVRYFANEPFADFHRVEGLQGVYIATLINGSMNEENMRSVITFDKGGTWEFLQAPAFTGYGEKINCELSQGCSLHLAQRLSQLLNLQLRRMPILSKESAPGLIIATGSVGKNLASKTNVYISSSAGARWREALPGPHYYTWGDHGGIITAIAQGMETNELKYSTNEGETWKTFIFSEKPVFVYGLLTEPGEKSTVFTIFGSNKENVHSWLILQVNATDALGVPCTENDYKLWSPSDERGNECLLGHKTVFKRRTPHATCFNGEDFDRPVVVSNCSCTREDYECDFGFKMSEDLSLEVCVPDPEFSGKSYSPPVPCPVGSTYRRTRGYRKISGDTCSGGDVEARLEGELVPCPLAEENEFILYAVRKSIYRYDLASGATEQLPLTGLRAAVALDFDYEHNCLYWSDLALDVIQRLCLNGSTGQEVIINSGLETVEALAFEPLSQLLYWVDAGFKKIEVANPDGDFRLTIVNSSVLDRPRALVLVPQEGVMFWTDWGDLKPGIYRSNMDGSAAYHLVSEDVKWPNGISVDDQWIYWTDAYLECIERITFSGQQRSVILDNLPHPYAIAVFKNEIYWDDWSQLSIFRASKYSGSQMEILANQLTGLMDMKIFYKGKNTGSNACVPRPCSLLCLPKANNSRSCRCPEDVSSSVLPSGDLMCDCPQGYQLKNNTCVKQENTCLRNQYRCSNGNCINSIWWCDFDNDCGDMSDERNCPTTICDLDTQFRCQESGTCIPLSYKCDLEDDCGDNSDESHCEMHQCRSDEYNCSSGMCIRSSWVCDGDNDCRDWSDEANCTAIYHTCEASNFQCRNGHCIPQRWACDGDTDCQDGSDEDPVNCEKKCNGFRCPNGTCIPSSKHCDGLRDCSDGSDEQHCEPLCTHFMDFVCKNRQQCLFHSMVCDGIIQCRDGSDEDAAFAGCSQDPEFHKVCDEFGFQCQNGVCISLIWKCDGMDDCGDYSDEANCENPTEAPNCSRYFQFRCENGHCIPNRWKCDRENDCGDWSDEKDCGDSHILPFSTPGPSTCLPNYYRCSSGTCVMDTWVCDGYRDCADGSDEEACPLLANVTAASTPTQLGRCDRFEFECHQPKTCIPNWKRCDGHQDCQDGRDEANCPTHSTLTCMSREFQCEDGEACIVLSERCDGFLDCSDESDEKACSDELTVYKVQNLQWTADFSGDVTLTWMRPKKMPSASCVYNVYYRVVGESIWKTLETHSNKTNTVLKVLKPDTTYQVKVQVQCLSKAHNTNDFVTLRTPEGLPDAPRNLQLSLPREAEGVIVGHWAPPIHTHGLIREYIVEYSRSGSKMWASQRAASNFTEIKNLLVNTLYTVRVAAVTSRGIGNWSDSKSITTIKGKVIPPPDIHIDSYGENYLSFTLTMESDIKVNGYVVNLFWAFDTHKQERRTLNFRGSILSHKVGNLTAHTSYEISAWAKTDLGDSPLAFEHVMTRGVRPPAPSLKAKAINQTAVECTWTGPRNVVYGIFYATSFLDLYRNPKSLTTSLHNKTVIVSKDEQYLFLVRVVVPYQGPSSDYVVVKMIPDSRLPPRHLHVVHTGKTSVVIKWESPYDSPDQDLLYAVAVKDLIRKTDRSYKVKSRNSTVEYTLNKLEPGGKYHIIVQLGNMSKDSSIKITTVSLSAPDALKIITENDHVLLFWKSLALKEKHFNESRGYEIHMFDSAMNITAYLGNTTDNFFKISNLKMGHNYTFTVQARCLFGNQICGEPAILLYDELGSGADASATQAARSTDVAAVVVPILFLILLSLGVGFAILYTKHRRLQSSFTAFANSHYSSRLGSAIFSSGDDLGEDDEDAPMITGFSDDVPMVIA
UniProt Q92673, sequence (Q92673 82-2214, chain 2 of 2): as the sequence (Q92673 82-2214, chain 1 of 2) above

In assay [1], “VPS26b subunit of retromer (from UniProt Q4G0F5 1-336) (natural protein)” displayed a co-IP product relative to total input of 6%.
Broadly, the stoichiometry N is a count of units in the complex or per binding partner. For the substance “PA-tagged SORLA VPS10p-domain (1 to 753), T659C mutant (from UniProt Q92673 29-753) (domain or fragment)”, the stoichiometry N in assay [2] turned out to be 2.
